Source: paper PMC4164354
Several values for one entry are separate records, joined by “and”; a condition that tells them apart may be missing. Identical values can stand only once.

Legend:
[1] = target: bovine lactoferrin purified from bovine colostrum as the high molecular weight biomacromolecular complex (HMW-bLf) (bovine); assay: SDS-PAGE and Western blot; 3 mg mL^-1 HMW-bLf in 50 mM Tris HCl pH 7.5 with 1 M NaCl, 1 day at 37°C; gradient SDS-PAGE (reducing gel), blot probed with goat anti-bLf
[2] = target: native monomeric bovine lactoferrin (NM-bLf) (bovine); assay: SDS-PAGE; NM-bLf stored at high concentration; denaturing SDS-PAGE; data not shown

Substance	stoichiometry N [1]	stoichiometry N [2]
bovine lactoferrin purified from bovine colostrum as the high molecular weight biomacromolecular complex (HMW-bLf) (natural protein)	2	
native monomeric bovine lactoferrin (NM-bLf) (natural protein)		3 and 2
